Results: publication PMC7367873, “Dissecting the sequence determinants for dephosphorylation by the catalytic subunits of phosphatases PP1 and PP2A” (Nature Communications, 2020)

B1: TRAM1 (protein, UniProt Q15629 1-374, looked up)
Translocating …: MAIRKKSTKSPPVLSHEFVLQNHADIVSCVAMVFLLGLMFEITAKASIIFVTLQYNVTLPATEEQATESVSLYYYGIKDLATVFFYMLVAIIIHAVIQEYMLDKINRRMHFSKTKHSKFNESGQLSAFYLFACVWGTFILISENYISDPTILWRAYPHNLMTFQMKFFYISQLAYWLHAFPELYFQKTKKEDIPRQLVYIGLYLFHIAGAYLLNLNHLGLVLLVLHYFVEFLFHISRLFYFSNEKYQKGFSLWAVLFVLGRLLTLILSVLTVGFGLARAENQKLDFSTGNFNVLAVRIAVLASICVTQAFMMWKFINFQLRRWREHSAFQAPAVKKKPTVTKGRSSKKGTENGVNGTLTSNVADSPRNKKEKSS
B2: PA2G4 (protein, UniProt Q9UQ80 2-394, looked up)
Proliferation-associated …: SGEDEQQEQTIAEDLVVTKYKMGGDIANRVLRSLVEASSSGVSVLSLCEKGDAMIMEETGKIFKKEKEMKKGIAFPTSISVNNCVCHFSPLKSDQDYILKEGDLVKIDLGVHVDGFIANVAHTFVVDVAQGTQVTGRKADVIKAAHLCAEAALRLVKPGNQNTQVTEAWNKVAHSFNCTPIEGMLSHQLKQHVIDGEKTIIQNPTDQQKKDHEKAEFEVHEVYAVDVLVSSGEGKAKDAGQRTTIYKRDPSKQYGLKMKTSRAFFSEVERRFDAMPFTLRAFEDEKKARMGVVECAKHELLQPFNVLYEKEGEFVAQFKFTVLLMPNGPMRITSGPFEPDLYKSEMEVQDAELKALLQSSASRKTQKKKKKKASKTAENATSGETLEENEAGD
B3: EIF4E2 (protein, UniProt O60573 1-245, looked up)
Eukaryotic translation …: MNNKFDALKDDDSGDHDQNEENSTQKDGEKEKTERDKNQSSSKRKAVVPGPAEHPLQYNYTFWYSRRTPGRPTSSQSYEQNIKQIGTFASVEQFWRFYSHMVRPGDLTGHSDFHLFKEGIKPMWEDDANKNGGKWIIRLRKGLASRCWENLILAMLGEQFMVGEEICGAVVSVRFQEDIISIWNKTASDQATTARIRDTLRRVLNLPPNTIMEYKTHTDSIKMPGRLGPQRLLFQNLWKPRLNVP
B4: EDC3 (protein, UniProt Q96F86 1-508, looked up)
Enhancer of mRNA-decapping …: MATDWLGSIVSINCGDSLGVYQGRVSAVDQVSQTISLTRPFHNGVKCLVPEVTFRAGDITELKILEIPGPGDNQHFGDLHQTELGPSGAGCQVGINQNGTGKFVKKPASSSSAPQNIPKRTDVKSQDVAVSPQQQQCSKSYVDRHMESLSQSKSFRRRHNSWSSSSRHPNQATPKKSGLKNGQMKNKDDECFGDDIEEIPDTDFDFEGNLALFDKAAVFEEIDTYERRSGTRSRGIPNERPTRYRHDENILESEPIVYRRIIVPHNVSKEFCTDSGLVVPSISYELHKKLLSVAEKHGLTLERRLEMTGVCASQMALTLLGGPNRLNPKNVHQRPTVALLCGPHVKGAQGISCGRHLANHDVQVILFLPNFVKMLESITNELSLFSKTQGQQVSSLKDLPTSPVDLVINCLDCPENVFLRDQPWYKAAVAWANQNRAPVLSIDPPVHEVEQGIDAKWSLALGLPLPLGEHAGRIYLCDIGIPQQVFQEVGINYHSPFGCKFVIPLHSA
B5: GIT1 (protein, UniProt Q9Y2X7 1-761, looked up)
ARF GTPase-activating protein …: MSRKGPRAEVCADCSAPDPGWASISRGVLVCDECCSVHRSLGRHISIVKHLRHSAWPPTLLQMVHTLASNGANSIWEHSLLDPAQVQSGRRKANPQDKVHPIKSEFIRAKYQMLAFVHKLPCRDDDGVTAKDLSKQLHSSVRTGNLETCLRLLSLGAQANFFHPEKGTTPLHVAAKAGQTLQAELLVVYGADPGSPDVNGRTPIDYARQAGHHELAERLVECQYELTDRLAFYLCGRKPDHKNGHYIIPQMADSLDLSELAKAAKKKLQALSNRLFEELAMDVYDEVDRRENDAVWLATQNHSTLVTERSAVPFLPVNPEYSATRNQGRQKLARFNAREFATLIIDILSEAKRRQQGKSLSSPTDNLELSLRSQSDLDDQHDYDSVASDEDTDQEPLRSTGATRSNRARSMDSSDLSDGAVTLQEYLELKKALATSEAKVQQLMKVNSSLSDELRRLQREIHKLQAENLQLRQPPGPVPTPPLPSERAEHTPMAPGGSTHRRDRQAFSMYEPGSALKPFGGPPGDELTTRLQPFHSTELEDDAIYSVHVPAGLYRIRKGVSASAVPFTPSSPLLSCSQEGSRHTSKLSRHGSGADSDYENTQSGDPLLGLEGKRFLELGKEEDFHPELESLDGDLDPGLPSTEDVILKTEQVTKNIQELLRAAQEFKHDSFVPCSEKIHLAVTEMASLFPKRPALEPVRSSLRLLNASAYRLQSECRKTVPPEPGAPVDFQLLTQQVIQCAYDIAKAAKQLVTITTREKKQ
B6: RAE1 (protein, UniProt P78406 1-368, looked up)
mRNA export factor RAE1: MSLFGTTSGFGTSGTSMFGSATTDNHNPMKDIEVTSSPDDSIGCLSFSPPTLPGNFLIAGSWANDVRCWEVQDSGQTIPKAQQMHTGPVLDVCWSDDGSKVFTASCDKTAKMWDLSSNQAIQIAQHDAPVKTIHWIKAPNYSCVMTGSWDKTLKFWDTRSSNPMMVLQLPERCYCADVIYPMAVVATAERGLIVYQLENQPSEFRRIESPLKHQHRCVAIFKDKQNKPTGFALGSIEGRVAIHYINPPNPAKDNFTFKCHRSNGTNTSAPQDIYAVNGIAFHPVHGTLATVGSDGRFSFWDKDARTKLKTSEQLDQPISACCFNHNGNIFAYASSYDWSKGHEFYNPQKKNYIFLRNAAEELKPRNKK
B7: USP8 (protein, UniProt P40818 1-1118, looked up)
Ubiquitin carboxyl-terminal …: MPAVASVPKELYLSSSLKDLNKKTEVKPEKISTKSYVHSALKIFKTAEECRLDRDEERAYVLYMKYVTVYNLIKKRPDFKQQQDYFHSILGPGNIKKAVEEAERLSESLKLRYEEAEVRKKLEEKDRQEEAQRLQQKRQETGREDGGTLAKGSLENVLDSKDKTQKSNGEKNEKCETKEKGAITAKELYTMMTDKNISLIIMDARRMQDYQDSCILHSLSVPEEAISPGVTASWIEAHLPDDSKDTWKKRGNVEYVVLLDWFSSAKDLQIGTTLRSLKDALFKWESKTVLRNEPLVLEGGYENWLLCYPQYTTNAKVTPPPRRQNEEVSISLDFTYPSLEESIPSKPAAQTPPASIEVDENIELISGQNERMGPLNISTPVEPVAASKSDVSPIIQPVPSIKNVPQIDRTKKPAVKLPEEHRIKSESTNHEQQSPQSGKVIPDRSTKPVVFSPTLMLTDEEKARIHAETALLMEKNKQEKELRERQQEEQKEKLRKEEQEQKAKKKQEAEENEITEKQQKAKEEMEKKESEQAKKEDKETSAKRGKEITGVKRQSKSEHETSDAKKSVEDRGKRCPTPEIQKKSTGDVPHTSVTGDSGSGKPFKIKGQPESGILRTGTFREDTDDTERNKAQREPLTRARSEEMGRIVPGLPSGWAKFLDPITGTFRYYHSPTNTVHMYPPEMAPSSAPPSTPPTHKAKPQIPAERDREPSKLKRSYSSPDITQAIQEEEKRKPTVTPTVNRENKPTCYPKAEISRLSASQIRNLNPVFGGSGPALTGLRNLGNTCYMNSILQCLCNAPHLADYFNRNCYQDDINRSNLLGHKGEVAEEFGIIMKALWTGQYRYISPKDFKITIGKINDQFAGYSQQDSQELLLFLMDGLHEDLNKADNRKRYKEENNDHLDDFKAAEHAWQKHKQLNESIIVALFQGQFKSTVQCLTCHKKSRTFEAFMYLSLPLASTSKCTLQDCLRLFSKEEKLTDNNRFYCSHCRARRDSLKKIEIWKLPPVLLVHLKRFSYDGRWKQKLQTSVDFPLENLDLSQYVIGPKNNLKKYNLFSVSNHYGGLDGGHYTAYCKNAARQRWFKFDDHEVSDISVSSVKSSAAYILFYTSLGPRVTDVAT
B8: GLCCI1 (protein, UniProt Q86VQ1 1-547, looked up)
Glucocorticoid-induced …: MSTASSSSSSSSSQTPHPPSQRMRRSAAGSPPAVAAAGSGNGAGGGGGVGCAPAAGAGRLLQPIRATVPYQLLRGSQHSPTRPPVAAAAASLGSLPGPGAARGPSPSSPTPPAAAAPAEQAPRAKGRPRRSPESHRRSSSPERRSPGSPVCRADKAKSQQVRTSSTIRRTSSLDTITGPYLTGQWPRDPHVHYPSCMKDKATQTPSCWAEEGAEKRSHQRSASWGSADQLKEQIAKLRQQLQRSKQSSRHSKEKDRQSPLHGNHITISHTQATGSRSVPMPLSNISVPKSSVSRVPCNVEGISPELEKVFIKENNGKEEVSKPLDIPDGRRAPLPAHYRSSSTRSIDTQTPSVQERSSSCSSHSPCVSPFCPPESQDGSPCSTEDLLYDRDKDSGSSSPLPKYASSPKPNNSYMFKREPPEGCERVKVFEEMASRQPISAPLFSCPDKNKVNFIPTGSAFCPVKLLGPLLPASDLMLKNSPNSGQSSALATLTVEQLSSRVSFTSLSDDTSTAGSMEASVQQPSQQQQLLQELQGEDHISAQNYVII
B9: PAK4 (protein, UniProt O96013 1-591, looked up)
Serine/threonine-protein …: MFGKRKKRVEISAPSNFEHRVHTGFDQHEQKFTGLPRQWQSLIEESARRPKPLVDPACITSIQPGAPKTIVRGSKGAKDGALTLLLDEFENMSVTRSNSLRRDSPPPPARARQENGMPEEPATTARGGPGKAGSRGRFAGHSEAGGGSGDRRRAGPEKRPKSSREGSGGPQESSRDKRPLSGPDVGTPQPAGLASGAKLAAGRPFNTYPRADTDHPSRGAQGEPHDVAPNGPSAGGLAIPQSSSSSSRPPTRARGAPSPGVLGPHASEPQLAPPACTPAAPAVPGPPGPRSPQREPQRVSHEQFRAALQLVVDPGDPRSYLDNFIKIGEGSTGIVCIATVRSSGKLVAVKKMDLRKQQRRELLFNEVVIMRDYQHENVVEMYNSYLVGDELWVVMEFLEGGALTDIVTHTRMNEEQIAAVCLAVLQALSVLHAQGVIHRDIKSDSILLTHDGRVKLSDFGFCAQVSKEVPRRKSLVGTPYWMAPELISRLPYGPEVDIWSLGIMVIEMVDGEPPYFNEPPLKAMKMIRDNLPPRLKNLHKVSPSLKGFLDRLLVRDPAQRATAAELLKHPFLAKAGPPASIVPLMRQNRTR
B10: HOMER3 (protein, UniProt Q9NSC5 1-361, looked up)
Homer protein homolog 3: MSTAREQPIFSTRAHVFQIDPATKRNWIPAGKHALTVSYFYDATRNVYRIISIGGAKAIINSTVTPNMTFTKTSQKFGQWADSRANTVYGLGFASEQHLTQFAEKFQEVKEAARLAREKSQDGGELTSPALGLASHQVPPSPLVSANGPGEEKLFRSQSADAPGPTERERLKKMLSEGSVGEVQWEAEFFALQDSNNKLAGALREANAAAAQWRQQLEAQRAEAERLRQRVAELEAQAASEVTPTGEKEGLGQGQSLEQLEALVQTKDQEIQTLKSQTGGPREALEAAEREETQQKVQDLETRNAELEHQLRAMERSLEEARAERERARAEVGRAAQLLDVSLFELSELREGLARLAEAAP

tested on: GFP-14-3-3β; assay: GFP-14-3-3β co-IP with LC-MS/MS, untreated GFP-14-3-3β versus GFP control (14-3-3 interactome); format: binding, human; conditions: log2 difference; pairwise comparison untreated vs GFP, label-free quantification, 3 replicates each

Molecule | Difference (log2), untreated vs GFP
B1 | 0.1201
B2 | 0.3875

same assay, conditions: pairwise comparison untreated GFP-14-3-3β vs GFP, student's t-test; 3 replicates each; LC-MS/MS label-free quantification

Molecule | Difference (log2), untreated vs GFP [log2]
B3 | 3.4457
B4 | 4.9273
B5 | 5.06
B6 | 3.4084
B7 | 6.726
B8 | 4.69
B9 | 5.767
B10 | 5.445

tested on: GFP-14-3-3β and its binding proteins; assay: GFP-14-3-3β co-IP with LC-MS/MS label-free quantification, untreated versus PP1c-treated; parameters: species or system human; conditions: log2 difference; pairwise comparison PP1 vs untreated, label-free quantification, 3 replicates each

Molecule | Difference (log2), PP1 vs untreated
B1 | 1.521
B2 | 1.519

same assay, conditions: pairwise comparison PP1 vs untreated, student's t-test; 3 replicates each; LC-MS/MS label-free quantification

Molecule | Difference (log2), PP1 vs untreated [log2]
B3 | -4.306
B4 | -4.243
B5 | -4.417
B6 | -4.214
B7 | -3.991
B8 | -4.246
B9 | -4.365
B10 | -4.512
